The results in this text go back to the RNAGym collection of RNA variant scans (doi:10.7554/elife.80360).

B1: Hairpin Ribozyme (parent)
chain: GUCCUCUUUCACGUGCGCGUGAAAGAGAGAAGUGAACCAGAGAAACACACGUUGUGGUAUAUUACCUGGUA

The variants in the series derive from B1. Description: self-cleavage, relative activity (ratio to wild type); higher = more cleavage; co-transcriptional.
Turning to C3G G19U, the self-cleavage turned out to be 0.26.
The same measure for C3G G19A: 0.2.
C3G G19C: the self-cleavage was 0.229.
As for C4A C18U, the self-cleavage amounted to 0.342.
C4A C18G: the self-cleavage came to 0.198.
With C4A C48G, the self-cleavage came to 0.207.
Take C4A C48U: the self-cleavage stood at 0.15.
Next, C3U C66G: 0.0901; C3G C46G: 0.0681.
Take C3G U53A: the self-cleavage amounted to 0.212.
With C3A C37U, the self-cleavage is 0.543.
Take C3G C16A: the self-cleavage came to 0.324.
Regarding C3A U14A, the self-cleavage was 0.525.
As for C3A U14C, the self-cleavage came out at 0.677.
Regarding C4A C50G, the self-cleavage amounted to 0.149.
Regarding C4A C50A, the self-cleavage turned out to be 0.178.
For C3A G21C, the self-cleavage is 0.489.
U2C U63A: the self-cleavage stood at 0.115.
Consider C3U A49G, for which the self-cleavage was 0.409.
Consider C3U A49C, for which the self-cleavage is 0.112.
C4A A24G: the self-cleavage came to 0.143.
C4A A59U: the self-cleavage came out at 0.0921.
Consider C4A A59C, for which the self-cleavage was 0.191.
Next, C3G G15U: 0.29; C3G A36G: 0.255.
For C3U U5C, the self-cleavage came out at 0.299.
With C3U U62G, the self-cleavage was 0.259.
Turning to C3U G13U, the self-cleavage was found to be 0.429.
For the variant C3U G42A, the self-cleavage was determined as 0.123.
Turning to C3U G42U, the self-cleavage was determined as 0.21.
The same measure for C3A G57A: 0.131.
As to C3A G29C, the self-cleavage is 0.102.
On to C3A G29A, for which the self-cleavage stood at 0.112.
Take U2G G32A: the self-cleavage turned out to be 0.0684.
Regarding U2G G32U, the self-cleavage is 0.119.
Next, U2G G32C: 0.155; C3U A36C: 0.369; C3A U52G: 0.538.
For U2G G29U, the self-cleavage was determined as 0.137.
With U2G C18U, the self-cleavage is 0.378.
Regarding C4A C12A, the self-cleavage was 0.187.
On to U2C U52G, for which the self-cleavage was 0.0756.
As for U2C U52C, the self-cleavage is 0.0386.
As to U2C U52A, the self-cleavage was 0.287.
Next, U2G U70A: 0.191; C3A A30U: 0.16; C3G U8G: 0.204.
For C3U A11G, the self-cleavage amounted to 0.338.
Regarding C3U A11C, the self-cleavage is 0.402.
The same measure for C3A G42A: 0.146; for C3A G42U: 0.249; for C4A A28U: 0.174.
In the case of C4A G19C, the self-cleavage turned out to be 0.143.
The same measure for U2G A61U: 0.191.
For C3A A31C, the self-cleavage turned out to be 0.144.
The same measure for C3A A31U: 0.155; for C3A A61G: 0.186; for C4A A41G: 0.13.
With C4A C37U, the self-cleavage came to 0.16.
With U2C U55A, the self-cleavage is 0.0763.
Turning to C4A G42C, the self-cleavage is 0.132.
Next, C3U U58C: 0.738.
On to U2G U8G, for which the self-cleavage came out at 0.471.
The same measure for C4A A23G: 0.209.
In the case of C3U U63A, the self-cleavage worked out at 0.189.
For U2G G15U, the self-cleavage was 0.395.
The same measure for U2G G15C: 0.342.
In the case of U2C U53A, the self-cleavage came to 0.322.
Consider C3G C66G, for which the self-cleavage worked out at 0.0857.
As for C3U U70C, the self-cleavage stood at 0.351.
Next, C3U U70A: 0.305; U2G C50A: 0.15; C3G A71G: 0.308.
The same measure for U2G C12U: 0.321.
Next, U2G C12A: 0.304; U2G U53G: 0.267.
With C3G U67C, the self-cleavage was 0.104.
Next, C3G U67G: 0.102; C3U G32A: 0.08.
Regarding C3U G32U, the self-cleavage came out at 0.102.
Take U2C G57A: the self-cleavage came to 0.175.
As for C3A G19A, the self-cleavage is 0.59.
In the case of C4A G13A, the self-cleavage turned out to be 0.193.
As to U2C U58A, the self-cleavage is 0.235.
C3U A26C: the self-cleavage turned out to be 0.314.
For C3A G34U, the self-cleavage was 1.34.
Next, C3G G42A: 0.0837; U2G A36U: 0.318; C3G U62G: 0.128.
C3G U62A: the self-cleavage stood at 0.107.
As to C4A G17A, the self-cleavage was 0.174.
As for U2G G25U, the self-cleavage stood at 0.359.
Take U2G G25A: the self-cleavage is 0.224.
With U2G A11C, the self-cleavage was 0.267.
Take U2G A11U: the self-cleavage came to 0.295.
For the variant U2G A11G, the self-cleavage came to 0.306.
Take U2G C46G: the self-cleavage was determined as 0.12.
The same measure for U2G U55C: 0.168.
Regarding U2G G42U, the self-cleavage amounted to 0.0398.
Consider C4A G27C, for which the self-cleavage was 0.093.
C4A G27U: the self-cleavage was 0.557.
On to C4A G27A, for which the self-cleavage worked out at 0.285.
Next, C4A C65G: 0.179; U2C U5A: 0.118.
For the variant C3A U63A, the self-cleavage was found to be 0.0798.
For the variant C3A G40U, the self-cleavage amounted to 0.194.
The same measure for C3A A59U: 0.126; for U2G G68U: 0.2; for U2G G68A: 0.166.
Consider U2G G68C, for which the self-cleavage turned out to be 0.135.
Take C3A C6G: the self-cleavage amounted to 0.455.
On to C3G A49U, for which the self-cleavage was determined as 0.188.
Next, C3G A49C: 0.0939; U2G U67G: 0.194.
On to C3U A41G, for which the self-cleavage is 0.643.
The same measure for C3U A41C: 0.983; for C3U G56A: 0.16; for C3A A64U: 0.249.
Take C3A G13U: the self-cleavage was 0.568.
Take C3U C37G: the self-cleavage is 0.262.
With C3U C37A, the self-cleavage was found to be 0.315.
The same measure for C3A A71G: 0.715; for U2G A26C: 0.153; for U2G A26U: 0.238.
Consider C3A U55C, for which the self-cleavage was 0.261.
The same measure for C3A U55G: 0.193; for C3A C65G: 0.314.
Consider C3U G17U, for which the self-cleavage is 0.473.
With U2G, the self-cleavage amounted to 0.348.
On to C4A G40U, for which the self-cleavage turned out to be 0.141.
Next, C4A G40C: 0.0835.
On to C4A G40A, for which the self-cleavage came out at 0.133.
As for C3A A26U, the self-cleavage was found to be 0.653.
Take C3U U9C: the self-cleavage came to 0.387.
For C3U U9A, the self-cleavage worked out at 0.299.
With C3A A24C, the self-cleavage amounted to 0.775.
With U2G G40C, the self-cleavage worked out at 0.126.
On to U2G G40U, for which the self-cleavage turned out to be 0.072.
On to C3G C65A, for which the self-cleavage worked out at 0.263.
Turning to C3G C65U, the self-cleavage worked out at 0.0576.
Next, C4A A71C: 0.674; U2G U60C: 0.373; U2C G69U: 0.114.
Turning to C3G U9A, the self-cleavage came out at 0.112.
The same measure for U2G A39U: 0.162; for U2G A39G: 0.179; for C3U G68C: 0.142.
Regarding C3U G34U, the self-cleavage came to 1.17.
Regarding C3G G34A, the self-cleavage came out at 0.27.
As for C3G G34U, the self-cleavage is 1.01.
In the case of U2G U52G, the self-cleavage worked out at 0.458.
On to U2G U52C, for which the self-cleavage was 0.346.
In the case of U2G U52A, the self-cleavage was found to be 0.33.
On to C3A C38U, for which the self-cleavage was 0.416.
For the variant C3G U55A, the self-cleavage came to 0.0814.
As to C3G G17C, the self-cleavage was 0.198.
Turning to C4A C38U, the self-cleavage stood at 0.135.
Consider U2G A28U, for which the self-cleavage was 0.32.
For U2G A28G, the self-cleavage turned out to be 0.138.
C3G C50G: the self-cleavage stood at 0.127.
With C4A A36U, the self-cleavage was 0.197.
Next, U2C U8C: 0.236.
On to C3U U53C, for which the self-cleavage worked out at 0.672.
On to C4A C66U, for which the self-cleavage turned out to be 0.136.
For the variant C4A C66G, the self-cleavage is 0.193.
The same measure for U2G G27C: 0.112; for C3A U70A: 0.377.
